Test results from patent US20240084003A1 (SIMCERE ZAIMING PHARMACEUTICAL, published 2024).

T1: monkey CD22 (full length, on HEK293T cells) (monkey)
T1 construct: NCBI XP_014979161.2; also called HEK293T-monkey CD22; HEK293T cells overexpressing monkey CD22
T1 chain: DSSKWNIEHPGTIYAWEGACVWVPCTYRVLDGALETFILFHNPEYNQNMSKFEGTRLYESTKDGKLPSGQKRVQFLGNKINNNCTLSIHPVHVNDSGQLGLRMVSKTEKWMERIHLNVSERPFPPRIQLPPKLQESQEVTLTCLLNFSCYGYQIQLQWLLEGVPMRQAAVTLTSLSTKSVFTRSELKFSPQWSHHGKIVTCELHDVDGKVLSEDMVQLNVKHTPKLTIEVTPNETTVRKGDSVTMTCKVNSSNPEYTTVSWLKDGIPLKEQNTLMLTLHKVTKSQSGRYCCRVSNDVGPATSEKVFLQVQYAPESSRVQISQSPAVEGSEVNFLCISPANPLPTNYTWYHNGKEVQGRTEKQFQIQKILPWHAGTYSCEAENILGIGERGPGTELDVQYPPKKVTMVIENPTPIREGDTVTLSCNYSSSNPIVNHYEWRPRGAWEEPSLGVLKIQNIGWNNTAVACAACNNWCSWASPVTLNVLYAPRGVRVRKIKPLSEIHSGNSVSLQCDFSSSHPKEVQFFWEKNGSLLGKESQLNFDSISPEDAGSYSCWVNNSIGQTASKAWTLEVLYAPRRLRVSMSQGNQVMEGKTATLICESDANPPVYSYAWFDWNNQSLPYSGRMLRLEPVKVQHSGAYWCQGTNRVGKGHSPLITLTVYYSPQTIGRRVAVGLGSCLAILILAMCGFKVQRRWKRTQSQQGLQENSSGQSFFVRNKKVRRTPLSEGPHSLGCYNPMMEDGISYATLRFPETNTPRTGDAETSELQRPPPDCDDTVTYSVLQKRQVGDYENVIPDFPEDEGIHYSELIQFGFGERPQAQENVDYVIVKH


Columns and labels:
[1] = biological target: T1, monkey CD22 (full length, on HEK293T …); experiment: FACS, HEK293T-monkey CD22 cells (293T as parent cells)
Source text: The required cells were scale-up cultured in a T-75 cell culture flask to the logarithmic growth phase. For the adherent cell CHO-K1, the medium was aspirated, the cells were washed 2 times with PBS buffer, and then digested with trypsin. After the digestion was terminated, the cells were washed 2 times with PBS buffer. For suspension cell Raji, the medium supernatant was directly centrifuged and discarded, and the cell pellet was washed 2 times with PBS. After counting the cells in the previous step, the cell pellet was resuspended with [PBS+2% (w/w) BSA] blocking solution to 2×10⁶ cells/ml, and added to a 96-well FACS reaction plate at 50 μl/well, and then the chimeric antibody test sample was added at 50 μl/well, and incubated on ice for 2 hours. The mixture was centrifuged and washed 3 times with PBS buffer, Alexa Flour 488-labeled secondary antibody (purchased from Invitrogen, catalog number: A-11013) was added at 50 μl/well, and incubated on ice for 1 hour. The obtained mixture was centrifuged and washed 5 times with PBS, and FACS (FACS Canto™, purchased from BD Company) was used for detection and result analysis. Data analysis was performed by software (CellQuest) to obtain the mean fluorescence density (MFI)of the cells. And then software (GraphPad Prism8) was used for analysis, data fitting, and EC50 value calculation. […] The same method was used to detect the binding of the chimeric antibodies to endogenous CD22-negative cell MoLT4 cells (purchased from ATCC, CRL-1582) and CHO-K1 cells.
HEK293T-monkey CD22 cells were subjected to FACS detection and data analysis according to the method in Example 5.2.

[2] = biological target: T1, monkey CD22 (full length, on HEK293T …); experiment: FACS on HEK293T-monkey CD22 cells
Source text: The required cells were scale-up cultured in a T-75 cell culture flask to the logarithmic growth phase. For the adherent cell CHO-K1, the medium was aspirated, the cells were washed 2 times with PBS buffer, and then digested with trypsin. After the digestion was terminated, the cells were washed 2 times with PBS buffer. For suspension cell Raji, the medium supernatant was directly centrifuged and discarded, and the cell pellet was washed 2 times with PBS. After counting the cells in the previous step, the cell pellet was resuspended with [PBS+2% (w/w) BSA] blocking solution to 2×10⁶ cells/ml, and added to a 96-well FACS reaction plate at 50 μl/well, and then the chimeric antibody test sample was added at 50 μl/well, and incubated on ice for 2 hours. The mixture was centrifuged and washed 3 times with PBS buffer, Alexa Flour 488-labeled secondary antibody (purchased from Invitrogen, catalog number: A-11013) was added at 50 μl/well, and incubated on ice for 1 hour. The obtained mixture was centrifuged and washed 5 times with PBS, and FACS (FACS Canto™, purchased from BD Company) was used for detection and result analysis. Data analysis was performed by software (CellQuest) to obtain the mean fluorescence density (MFI)of the cells. And then software (GraphPad Prism8) was used for analysis, data fitting, and EC50 value calculation. […]

Row | Binder | binding result [1] | binding result [2]
1 | F1.60.9 (antibody, human IgG1, kappa, V domains shown, Human-murine chimeric IgG1, kappa) VH: QVQLKESGPGLVAPSQSLSITCTVSGLSLNNYGVSWVRQPPGKGLEWLGVIWGDGSTNYHSALISRLSISKDNSKSQVFLKLNSLHTDDTATYYCAINWGDYWGQGTTLIVSS VL: DIKMTQSPSSMNASLGERVTITCKASQDINSYLSWFQQKPGKSPKILIYRANRLIDGVPSRFSGSGSGQDYSLTISSLEYEDMGIYYCLQYGVFPLTFGAGTKLELKR | no binding (tested: 10 nM) | –
2 | F2.343.16 (antibody, human IgG1, lambda, V domains shown, Human-murine chimeric IgG1, lambda) VH: QVQLKQSGPGLVQPSQSLSITCTVSGFSLTGYGVQWVRQSPGKGLEWLGVIWGGGGTDYNAAFISRLNIIKDNSKSQVFFKMNSLQADDTAIYYCARYSKYGHFDVWGTGTAVTVSS VL: QAVVTQESALTTSPGETVTLTCRSSTGAVTTSNYANWVQEKPDHLFTGLIGGTYNRVPGVPARFSGSLIGDKAALTITGAQTEDEAIYFCALWYSNHFWVFGGGTKLTVLG | – | no binding
3 | F1.280.1 (antibody, human IgG1, kappa, V domains shown, Human-murine chimeric IgG1, kappa) VH: QIQLVQSGPELKKPGETVKISCKASGYTFTTYGMSWVKQTPGKGLTWMGWINTDSGVPTYADDFKRRFAFSLEASATTAYLQINNLKNEDTATYFCARGGPDYWGQGTTLTVSS VL: DILLTQSPATLSVTPGETVSLSCRASQSIYKNLHWYHQKSHRSPRLLIKYASDSISGIPSRFTGSGSGTNFTLSINSVKPEDEGIYYCLQGYIVPLTFGAGTKLELKR | – | no binding
4 | F2.70.2 (antibody, human IgG1, lambda, V domains shown, Human-murine chimeric IgG1, lambda) VH: EVQLVESGGGLVKPGGSLKLSCAASGFTFSDYGMNWFRQAPEKGLEWVAYISRGSHTIYYADTVKGRFTISRDNAKNTLFLQMTSLRSNDTAMYYCVRMAGYYAMDYWGQGTSVTVSS VL: QLVLTQSSSASFSLGASAKLTCTLSSQHSSYIIEWYQQQPLKPPKYVMELKKDGSHSTGDGIPDRFSGSSSGADRYLSISNIQPEDEAIYICGVGDTIKEQFVYVFGGGTKVTVLG | no binding (tested: 10 nM) | –

The remaining lines, values ahead:

Row | binding result [1] | binding result [2] | Binder
5 | no binding (tested: 10 nM) | – | F1.257.3 (antibody, human IgG1, kappa, V domains shown, Human-murine chimeric IgG1, kappa) VH: QVQLQQSGPELARPGASVKLSCKASGYTFTSYGISWVKQRTGQDLEWIGEIYPKLGTTYYNEKFKDKATLTTDRSSSTAYMALRSLTSEDSAVYFCACPHYYATRGGDYWGQGTTLTVSS VL: EIVLTQSPATLSVTPGDSVTFSCRASQSISNHLHWYQQKSHESPRLLIRYASQSISGIPSRFSGSGSGTDFTLSLSSVETEDFGVYFCQQSHSWPYTFGGGTKLEIAR
6 | no binding (tested: 10 nM) | – | F2.180.16 (antibody, human IgG1, lambda, V domains shown, Human-murine chimeric IgG1, lambda) VH: EVKLVESGGGLVLPGGSLKISCAASGFTFSDYYMYWIRQTPDKRLEWVAYISNTGYSTFYPDSVKGRFTVSRDNAKNTLYLQMSRLQSEDTAMYYCARHGILYAMDYWGQGTSVTVSS VL: QPVLTQSSSASFSLGASAKLTCTLSSQYSTYTIGWYQQQPLKPPKYVMELKHDGSRHTGDGIPDRFSGSSSGADRYLSISNIQPEDEATYICGVGDTIKEQFMYVFGGGTKVTVLG
7 | no binding (tested: 10 nM) | – | F2.104.10 (antibody, human IgG1, lambda, V domains shown, Human-murine chimeric IgG1, lambda) VH: EVQLVESGGGFVKPGGSLKLSCAASGFTFSDYGMNWFRQAPEKGLEWVAYISRGSHTIYYADTVKGRFTISRDNAENTLFLQMTSLRSNDTAMYYCVRMAGYYAMDYWGQGTSLTVSS VL: QLVLTQSSSASFSLGASAKLTCTLSSQHSSYIIEWYQQQPLKPPKYVMEVKKDGSHSTGDGIPDRFSGSSSGADRYLSISNIQSEDEAIYICGVGDTIKEQFVYVFGGGTKVTVLG
